Data as given in US20060062780A1.

How the values were obtained:
[1] = molecular target: MOG-reactive B-cell receptor on B cells of anti-MOG transgenic mice; experiment: cell-based or functional assay
[2] = molecular target: MOG-reactive B-cell receptor on B cells of anti-MOG transgenic mice; experiment: flow cytometry on splenocytes, goat-anti-human IgG FITC

Work on MOG-Fc fusion protein yielded an ex vivo B cell depletion, splenocytes of anti-MOG transgenic mice, 10 µg/ml, 16 h [1] of 70% and a percent of IgM-positive splenocytes that bound (% of IgM-positive splenocytes) [2] greater than 90.
